Substrate in the data set: CCCCCCCCCCCCCCCC(=O)Oc1ccc([N+](=O)[O-])cc1
Nature of the data set: purified protein. The data set is classed as biochemical, Proteus mirabilis. The note with it: soluble free enzyme, 0.1 M NaH2PO4 pH 7.0, 25 °C, 1 nM enzyme, pNPP 0-2.25 mM, pNPP stock in MeCN:Triton X-100 1:1.

B1: Proteus mirabilis lipase (PML), soluble (Proteus mirabilis HI4320) (protein)
chain: MSTKYPIVLVHGLAGFNEIVGFPYFYGIADALRQDGHQVFTASLSAFNSNEVRGKQLWQFVQTLLQETQAKKVNFIGHSQGPLACRYVAANYPDSVASVTSINGVNHGSEIADLYRRIMRKDSIPEYIVEKVLNAFGTIISTFSGHRGDPQDAIAALESLTTEQVTEFNNKYPQALPKTPGGEGDEIVNGVHYYCFGSYIQGLIAGEKGNLLDPTHAAMRVLNTFFTEKQNDGLVGRSSMRLGKLIKDDYAQDHIDMVNQVAGLVGYNEDIVAIYTQHAKYLASKQL
notes: full-length PML gene in pET28b (NdeI/XhoI), N-terminal His-tag; no signal peptide needed; E. coli BL21(DE3)
For the protein B1, the Km amounted to 1770 ± 330 µM, the kcat is 112 ± 12 s⁻¹ and the kcat/Km amounted to 63200 ± 210 M⁻¹ s⁻¹.

Values taken from paper PMC6598307, “Directed evolution of a genetically encoded immobilized lipase for the efficient production of biodiesel from waste cooking oil” (Biotechnology for Biofuels, 2019).
